Tests used:
[1] = target: the molecule itself; test: AUC
[2] = target: T1, SfiI endonuclease wt (UniProt O52512 1-269); test: EMSA
T1 sequence: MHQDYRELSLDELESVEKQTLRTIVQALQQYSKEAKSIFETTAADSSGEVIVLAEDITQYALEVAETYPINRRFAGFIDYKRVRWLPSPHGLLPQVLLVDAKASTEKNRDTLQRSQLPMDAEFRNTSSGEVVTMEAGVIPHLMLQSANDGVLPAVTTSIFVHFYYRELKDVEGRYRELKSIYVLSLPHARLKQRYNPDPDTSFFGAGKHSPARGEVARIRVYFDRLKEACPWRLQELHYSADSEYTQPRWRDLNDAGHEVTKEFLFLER

[3] = target: T2, SfiI D79A (UniProt O52512 1-269, D79A); test: EMSA
T2 sequence: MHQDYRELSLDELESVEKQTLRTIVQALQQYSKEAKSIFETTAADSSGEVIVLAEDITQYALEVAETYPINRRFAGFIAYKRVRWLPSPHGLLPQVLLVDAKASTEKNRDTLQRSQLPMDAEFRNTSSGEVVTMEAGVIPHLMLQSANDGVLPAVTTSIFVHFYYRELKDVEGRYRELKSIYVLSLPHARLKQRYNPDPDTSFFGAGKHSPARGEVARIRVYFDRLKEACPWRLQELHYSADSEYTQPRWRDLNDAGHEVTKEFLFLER

[4] = target: T3, SfiI D100A (UniProt O52512 1-269, D100A); test: EMSA
T3 sequence: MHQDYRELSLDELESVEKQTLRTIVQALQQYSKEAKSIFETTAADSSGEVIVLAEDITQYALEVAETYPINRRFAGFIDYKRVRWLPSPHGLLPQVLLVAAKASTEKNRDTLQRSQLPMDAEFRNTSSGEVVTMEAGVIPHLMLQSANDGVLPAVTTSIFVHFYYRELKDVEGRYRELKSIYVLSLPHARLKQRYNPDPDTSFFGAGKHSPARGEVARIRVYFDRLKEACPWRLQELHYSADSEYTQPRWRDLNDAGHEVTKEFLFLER

[5] = target: T1, SfiI endonuclease wt; test: competition
[6] = target: T3, SfiI D100A; test: competition
[7] = target: T2, SfiI D79A; test: competition

B1: SfiI restriction endonuclease D79A mutant (enzyme)
chain: MHQDYRELSLDELESVEKQTLRTIVQALQQYSKEAKSIFETTAADSSGEVIVLAEDITQYALEVAETYPINRRFAGFIAYKRVRWLPSPHGLLPQVLLVDAKASTEKNRDTLQRSQLPMDAEFRNTSSGEVVTMEAGVIPHLMLQSANDGVLPAVTTSIFVHFYYRELKDVEGRYRELKSIYVLSLPHARLKQRYNPDPDTSFFGAGKHSPARGEVARIRVYFDRLKEACPWRLQELHYSADSEYTQPRWRDLNDAGHEVTKEFLFLER
[1]
  stoichiometry N: 4

B2: SfiI restriction endonuclease D100A mutant (enzyme)
chain: MHQDYRELSLDELESVEKQTLRTIVQALQQYSKEAKSIFETTAADSSGEVIVLAEDITQYALEVAETYPINRRFAGFIDYKRVRWLPSPHGLLPQVLLVAAKASTEKNRDTLQRSQLPMDAEFRNTSSGEVVTMEAGVIPHLMLQSANDGVLPAVTTSIFVHFYYRELKDVEGRYRELKSIYVLSLPHARLKQRYNPDPDTSFFGAGKHSPARGEVARIRVYFDRLKEACPWRLQELHYSADSEYTQPRWRDLNDAGHEVTKEFLFLER
[1]
  stoichiometry N: 4

B3: HEX-35 (dsDNA)
DNA 1: TCGATCCATGTGGCCAACAAGGCCTATTTGTCGAT
DNA 2: ATCGACAAATAGGCCTTGTTGGCCACATGGATCGA
[2]
  Kd: < 10 nM
[3]
  Kd: < 10 nM
[4]
  Kd: < 10 nM

B4: C-21 (dsDNA)
DNA 1: ATGTGGCCAACAAGGCCTATT
DNA 2: AATAGGCCTTGTTGGCCACAT
[5]
  binding result: binds
[6]
  binding result: binds
[7]
  binding result: binds
